Assay results reported in the DeepSol protein solubility set.

Assay: soluble on expression in E. coli; label from the status in PepcDB or PDB records

| Sequence | soluble on expression in E. coli |
| --- | --- |
| MYNLHREKIFMSYNQNKQYLEDNPEIQEKIELYGLNLLNEVISDNEEEIRADYNEANFLHPFWMNYPPLDRGKMPKGDQIPWIEVGEKAVGSKLTRLVSQREDITVREIGLPTGPDERYLLTSPTIYSLTNGFTDSIMMFVDIKSVGPRDSDYDLVLSPNQVSGNGDWAQLEGGIQNNQQTIQGPRSSQIFLPTIPPLYILSDGTIAPVVHLFIKPIYAMRSLTKGDTGQSLYKIKLASVPNGLGLFCNPGYAFDSAYKFLFRPGKDDRTKSLLQKRVRVDLRVLDKIGPRVMTIDMDK | soluble |
| MYPKQFLKFGETSLFQETVLRCLEVSDISEVFVVTNEAQKFFVIGQIKEAGYSIPPENILIEPEGKNTLPAIFFGMKEIEKKFGDSIVGVFSSDHVLDRAAMATISSAENLASDYLVTFGVVPTFPHTGYGYIKASEACSPGYRVSEFREKPDFETAKKYIEEGCLWNSGMFLFETRLFFEEARKHAPSVYGCFEKEGDINQIYECVDNISIDYGIMEKSDKVAVVRLDHKWSDLGNFAAIYDELEKDSVGNVIHDCDPMLLNSDGNLVYSRCGKIVSLIDVKDMVVVDTSDALLICPKSSSQKVKEIVSELKGRKDERAFIGQTVYRPWGSYTLLDASPGHKIKNITVLSDHKLSLQLHYHRSEHWVVVKGMACVEVDGKQFFLGPGESTFIRAGQKHRLSNPGKLPLEIIEVQLGELVDEEDIVRFDDVYGRRLEHHHHHH | soluble |
| MYQTKITGNRLYHTVSKGYGDSVTLFGKTDQGETPMSLLVIALSSCVTMCVQGFYHRQFQQDTLAVSVEASYEEEVFELLVRIDDVLDDKKKADLLAYIGTYCRVKQLLKPEVTVTITLEGLSHV | not soluble |
| MYREFYGLTEKPFSKTPDPRYLFLSRGHREALARLQYAVEERELALLTGDIGCGKTTISRALMDAVGNDGCFCFIVNPRLSAVEFLRTVARSLGIAEPAAAKDELLRQLTEAVYRLEGEKRCPVIIIDEAQLIPDQEVFDEIRLLTNFQLDDRNLMSVILMGQPELRQILSEPAHEALRQRIAMHYHLQPLSLEETLEYVDFRVEVAGGPQGLFSPDAIRRIYELSGGVPRKINILATNALLVGFGKDSAWIDASLVEELRDEASLYLEHHHHHH | not soluble |
| MYYGIKALTVGRGESVRAKITTTIEEALLNKAKALAKQEGLSGANAIIERALELYFTSIQSEVWEKSLSSGWIKKLVLKRDSILYENIKCRKTMENCRPDDYTPESLKAKGWKKV | not soluble |
| MYYPFVRKALFQLDPERAHEFTFQQLRRITGTPFEALVRQKVPAKPVNCMGLTFKNPLGLAAGLDKDGECIDALGAMGFGSIEIGTVTPRPQPGNDKPRLFRLVDAEGLINRMGFNNLGVDNLVENVKKAHYDGVLGINIGKNKDTPVEQGKDDYLICMEKIYAYAGYIAINISSPNTPGLRTLQYGEALDDLLTAIKNKQNDLQAMHHKYVPIAVKIAPDLSEEELIQVADSLVRHNIDGVIATNTTLDRSLVQGMKNCDQTGGLSGRPLQLKSTEIIRRLSLELNGRLPIIGVGGIDSVIAAREKIAAGASLVQIYSGFIFKGPPLIKEIVTHI | soluble |
| MYYVGIMSGTSLDGIDAVLVDFSGPSFSLLHTCYIPYDQSLRAALLGLNQAGENELHRAAILSNQLSGWYAQAVGRLLEKSGIDPGEIIAVGCHGQTIRHCPQPENGYSIQLVNGALLAELTGMTVVTDFRSRDIAAGGQGAPLVPAFHHEMFAHRDIHRLIINIGGITNITSLPVSGGVNGFDCGPGNMLMDAWCLKHTGMTYDHNGSWAESGRVINPLLENLLNFPYFSLPPPKSTGREMFSLDWLQPCLRGDEATQDVQSTLLQLTVRTITDSVETYYPAVRELYLCGGGAHNGTLVTRLQQQLPGRRINLTDALGIEADWVEACAFAWLARQSIERAPGNLPAVTGATGSRTLGAIYPA | not soluble |
| NATERSPVIIGLAGFTGSGRSFLNRTYTSMDFLTALKEIDEKRSDLGFIIVLPDVMTGLYGNQYLNSSAVGNYEDFIVKDIVGIIRERFGERPMGVFGKSSGGFGSYTLAVRHPDIFSGFIDVSGDSAFEYVYIPDFPDTYKEIRRQGLYRWFDEIHRKLSLQNQDIKVANIVAMSAFYSPDPGSPMGISLPFDIETGELIESVWNRWLKFDPARNIADYMDVLRDMAIFLQVGAKDEFHTDIGIGTMHRKLEQENVVHFYEVYDSGHFGIDYFYLKSLPLLIELIEQ | not soluble |
| NATQINEELYRLLEDTEILNQEITEGLLKGFEVPDAGVAIQLSKRDVVYPARILIIVLSEMWRFGLTKQSESFLAQVLTTIQKVVTQLKGNDLIPSGVFWLANVRELYSFVVFALNSILTEETFKNGMTDEEYKEYVSLVTELKDDFEALSYNIYNIWLKKLQKQLQKKAINAVVISESLPGFSAGETSGFLNKIFANTEEYTMDDILTFFNSIYWCMKSFHIENEVFHAVVTTLLNYVDAICFNELIMKRNFLSWKRGLQLNYNVTRLEEWCKTHGLTDGTECLQHLIQTAKLLQVRKYTIEDIDILRGICYSLTPAQLQKLISQYQVADYESPIPQEILRYVADIVKKEAALSSSGNDSKGHEHSSSIFITPETGPFTDPFSLIKTRKFDQVEAYIPAWLSLPSTKRIVDLVAQQVV | soluble |
| NDVKRALEVEEINKLLNEVPLKRLPEDLVRCRVWANLMFQLRGMPFVDLAFLHKSDLKGNTLSYRRHKTGGQMIVDIPPTAMELIRQYQNTDCNSPYLFPILSGTKTGEELYIEYQQALRIMNYNLGRLARRCGVITKVSSYTTRHTWATLAKYCNFSEQLICEAFGHSSVKVTETYLKNFKYEEIKKANDAI | not soluble |
| NEDCNTIFGADFSHEGETPGLGAEITRSEFSGQFIGKEIFKEGEFRSVAVVKKGQKAEGKDYVDGISGGTLTSDGVNEMLISSLRPYALYLMNNVKK | not soluble |
| NFDTNMFKLENYVKEKYSLESLEIIPNEFDDTPTILSERISQVAAGVLRNLIDDNMKIGFSWGKSLSNLVDLIHSKSVRNVHFYPLAGGPSHIHAKYHVNTLIYEMSRKFHGECTFMNATIVQENKLLADGILQSRYFENLKNSWKDLDIAVVGIGDFSNKGKHQWLDMLTEDDFKELTKVKTVGEICCRFFDSKGKEVYENLQERTIAISLEDLKNIPQSLAVAYGDTKVSSILSVLRANLVNHLITDKNTILKVLEEDGDL | soluble |
| NGAFFCNECDCRFSEEASLKRHTLQTHSDK | soluble |
| NIILQEDNAQLDEVVVVGYGTMKKKDLTGSVTAVKGDELAARRTTQLSTALQGALSGVMVSRDNGAPGSSASIQIRGVTTIGDSSPLVIIDGIPGDINSVNPEDVESMSVLKDAASASIYGSRAAAGVIVITTKRAKSGD | not soluble |
| NKDMNFTIRANYTFSQNVIDYFEENKLPYDYLSVTGKPFNILRGYISEGLFASKEEINTSPDQSGFGTIRPGDIKYRDVNGDGIINEDDKVPLSYSNQLPRMMYGFGGDFQWKDLTVSILFKGSAKVDYYRAGLGNDYGWIPFYNGDLGNVIKLANNPKNRWTPAWYSGTTATENPNAEFPRLSYGKNTNNSQLSSFWRRNGSFLRLQEVSLRYSLKHLPWIKSVGLSSVDLEFVANNLFTIDKVKYFDPEQASANGAVYPIPATYAFQVYLRF | not soluble |
| NKFNTWNDSRGNYWSDYEGSDENGDGIGDSAYAVNPEAGSMDYMPLMEYLHSSPVLPTARFTSDITEGFAPLSVRFKDFSENATSRLWMFGDGNTSDSPSPLHTFFNEGEYIVSLIVSNENDSDSASVTIRA | soluble |
| NLMYYGTFIIDNPVKKGAEKFIAQCREISVPVFVATGDTTKAAENIAKVLCPANAGKIVTLRADQIDEKGIEFLNEENYPSDSTVIFSGINEAILNRFQKLMGREGAKRPVVIFAEMSTEGKGVLARYLKDHHYFVVANGDGTNDVMMMKNSNVVIAHHSDDGTFAPGVDGLTN | not soluble |
| NPAIAMTEKEIKEYGFPFDARFCSLPLVHADDLKQIFGRYASEVCCRYLRPFDSDYYTLATKNFYQTDIAALDPTAVVGGEDTIRGLMRVATEVCFVIESGKPGAFHPRIHFEKSFRYAHLSLEEKKAWQRLSDDYFHKRNDDLWKQEALSRLIPLLSSTDMLVCVEDLGMIPPAVPVVMEQLQLLSLILERISKEPGQDFADMSRQPYCSVCTTSTHDMAPLRLWWQENELPRRHYYSMILGEKGTAPETCTPETARRILRQHLLSTSMLAIFPLADWLSLSGELQGIVAPEDEQINKPEISDHYWRYRMPISIESLSEDYRELNESIASLIRTSGRG | not soluble |
| NTAPSLTVPECAICLQTCVHPVSLPCKHVFCYLCVKGASWLGKRCALCRQEIPEDFLD | soluble |
| PAEIHIITAARGRGKSTLAGKLAEQFAKTEQVILTAHRSSSIQKILQTASINIPFFAPDKLLNLIETKQISADHLLFIDEAACIPLPILQQLGNYFKKVILTTTTQNYEGTGRGFKLKLVKQLHRTTKEWQLFQPLRWSNHDRLEQFTNELLLLN | not soluble |
| PAIDYKTAFHLAPIGLVLSRDRVIEDCNDELAAIFRCARADLIGRSFEVLYPSSDEFERIGERISPVMIAHGSYADDRIMKRAGGELFWCHVTGRALDRTAPLAAGVWTFEDLSATRRVA | soluble |
| PHFIVECSDNIREEADLPGLFAKVNPTLAATGIFPLAGIRSRVHWVDTWQMADGQHDYAFVHMTLKIGAGRSLESRQQAGEMLFELIKTHFAALMESRLLALSFEIEELHPTLNFKQNNVHALFK | soluble |
| PHPADPRLLIGQHVGAGPMVLASPWPRIVAPADFDTRFQGEARDLVLAHERVHLARGDAQINALVVALQCLCWFNPLVHLGAHRLRLDQEMACDEAVLARRPEARRLYAETLLDTLLAPR | not soluble |
| PLGSDHWGKGDMSDEDDENEFFDAPEIITMPENLGHKRTGSHHHHHH | soluble |
| PLWVAPDGHIFLEAFSPVYKYAQDFLVAIAEPVCRPTHVHEYKLTAYSLYAAVSVGLQTSDITEYLRKLSKTGVPDGIMQFIKLCTVSYGKVKLVLKHNRYFVESCHPDVIQHLLQDPVIRECRLRNSEGEATELITETF | not soluble |
| PNFSGNWKIIRSENFEELLKVLGVNVMLRKIAVAAASKPAVEIKQEGDTFYIKVSTTVRTTEINFKVGEEFEEQTVDGRPCKSLVKWESENKMVCEQKLLKGEGPKTSWTLELTNDGELIDTMTADDVVCTKVFVRE | soluble |
| PRGSHMIILAFDIFGTVLDTSTVIQEFRNKQLEYTWLLTIMGKYVEFEEITKITLRYILKVRGEESKFDEELNKWKNLKAYEDTKYLKEISEIAEVYALSNGSINEVKQHLERNGLLRYFKGIFSAESVKEYKPSPKVYKYFLDSIGAKEAFLVSSNAFDVIGAKNAGMRSIFVNRKNTIVDPIGGKPDVIVNDFKELYEWILRYK | soluble |
| PRTRECDYCGTDIEPGTGTMFVHKDGATTHFCSSKCENNADLGREARNLEWTDTARGEAGEAEDEA | soluble |
| PSFSFGGITPVSLQRSSMELISVQAVKHPKLLLYLSERGLQPSDASPFLSEVYYKVSRKCFFALGFPNDAGGWELRNPYFKGCFAPKAITTIKGTDSHKLLLFEGFMDFLSWRKLHPEGQAESIILNSLTLLPKLMPTLHPYPMIESLLDNDEAGDRATKQLIDAGLPVKDMRACYAPYKDINEYLTLAEQRKKILTPHKRGLRR | not soluble |
